Here are results for 14 molecules from PMC4486954, “Highly homologous proteins exert opposite biological activities by using different interaction interfaces” (Scientific Reports, 2015).

What is called Kd is a measure of binding affinity in units of concentration.

No end group written: not given here.

The target in test [1] is iASPP 616-623 peptide 616-623 (Homo sapiens) (UniProt Q8WUF5). Briefly: ITC. The settings on record: cited from earlier work.
In test [2] the target is T1, iASPP Ank-SH3 (Homo sapiens, UniProt Q8WUF5).
T1 construct: (2) iASPP Ank-SH3 603-828; HLT tag (His tag + lipoyl domain + TEV site) (N, cleaved yes); made in house; host or cells: E. coli HMS 174 (Novagen)
T1 sequence (Q8WUF5 603-828): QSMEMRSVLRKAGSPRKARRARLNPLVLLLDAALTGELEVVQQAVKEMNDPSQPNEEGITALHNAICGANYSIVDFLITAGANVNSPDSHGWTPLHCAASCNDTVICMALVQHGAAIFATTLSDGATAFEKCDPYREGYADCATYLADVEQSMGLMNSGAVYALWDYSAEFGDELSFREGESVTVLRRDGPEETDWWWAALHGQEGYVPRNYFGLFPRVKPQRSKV
The test can be described thus: Fluorescence anisotropy binding of fluorescein-labeled iASPP Pro derived peptides to iASPP Ank-SH3. The conditions noted are these: 250 μM iASPP Ank-SH3 titrated into 100 nM fluorescein-labeled peptide, 10 °C, 20 mM Hepes pH 7.3, ionic strength 50 mM. How it is done:
Binding of the iASPP Pro-derived peptides to iASPP Ank-SH3 was measured by fluorescence anisotropy using a PerkinElmer Life Sciences LS-50b spectrofluorimeter equipped with a Hamilton microlab M dispenser. Titration of iASPP Ank-SH3 into iASPP Pro derived fluorescein-labeled (FL) peptides was performed at 10 °C in 20 mM Hepes buffer, pH 7.3, 43 mM NaCl (total ionic strength = 50 mM), 10% glycerol and 5 mM β-mercaptoethanol. The excitation wavelength was set at 480 nm and the emission measured at 530 nm. The labeled peptide, dissolved in 1 ml buffer to a final concentration of 100 nM, was placed in the cuvette. 250 μM iASPP Ank-SH3 was placed in the dispenser and aliquots of 10–20 μl were added at 1.5 min intervals. The solution was then stirred for 30 sec, and the fluorescence and anisotropy were measured. Data were analyzed using the program Origin8 (OriginLab) and were fit to 1:1 binding model:
[drawing 1] (R- measured fluorescence anisotropy, R0- anisotropy value corresponding to the free peptide, ∆R- amplitude of the fluorescence anisotropy change, [Protein]- protein concentration, Kd- dissociation constant).
(In general: Fluorescence polarisation rises when a labelled molecule tumbles more slowly, as on binding a larger partner.)

The subject of the next test is HLT-iASPP Ank-SH3. The test can be described thus: Peptide array screening: HLT-iASPP Ank-SH3 binding to array of iASPP Pro derived peptides. The arrangement: species or system human. The settings on record: CelluSpots array, N-acetylated 15-residue peptides on cellulose; 5 μM protein, 4 °C overnight; IS = 150 mM, pH 7.0; anti His HRP, chemiluminescence. How it is done: (§1) The CelluSpots^TM peptide micro-arrays were synthesized by INTAVIS Bioanalytical Instruments AG, Köln, Germany. The 15 residue peptides were acetylated at their N-termini and attached to a cellulose membrane via their C termini through an amide bond. For screening the binding of the array to HLT-iASPP Ank-SH3 the array was first washed for 4 h at room temperature with 50 mM Tris-HCl pH = 8 at an ionic strength (IS) of 150 mM adjusted by NaCl, 0.05% Tween20 and 2.5% (W/V) skimmed milk (buffer D) for blocking unspecific binding. HLT-iASPP Ank-SH3 was dissolved in 20 mM Phosphate buffer pH = 7.0 IS = 150 mM, 5 mM βME, 10% glycerol and 0.02% NaN3 and 2.5% skimmed milk. 5 ml of 5 μM of the protein were incubated with the arrays at 4 °C with shaking overnight. After three washes with TBST, the array was incubated with anti His HRP conjugated antibody at room temperature for 1 hour. The antibody was dissolved in buffer D. Then the array was washed again three times with TBST. Immunodetection was performed using chemiluminiscence (ECL reagents). Peptide array screening for binding HLT-iASPP Pro was also preformed as above with change of the proteins buffer. HLT-iASPP Pro was dissolved in 50 mM Phosphate buffer pH = 7.0, 10% glycerol, 0.02% NaN3, 0.001% Tween 20, IS = 150 mM and 2.5% skimmed milk.

Test [3] relates to HLT-iASPP Pro. Briefly: Peptide array screening: HLT-iASPP Pro binding to array of iASPP Ank-SH3 derived peptides. The arrangement: species or system human. The settings on record: CelluSpots array, N-acetylated 15-residue peptides on cellulose; 50 mM Phosphate pH 7.0, IS = 150 mM; anti His HRP, chemiluminescence. As to the method: as §1
For test [4], the target named is T2, HLT-iASPP Pro (human, UniProt Q8WUF5 1-602).
T2 construct: iASPP (human), proline rich (Pro) domain, residues 1-602 of the 828-residue protein, Swiss-Prot Q8WUF5; Cloned EcoRI/NotI into pHis parallel 2HLT; calculated Mw with tag 75.9 kDa; also called iASPP Pro 1-602; iASPP 1-602; source: E. coli Rosetta2, purified (Nickel Sepharose, size exclusion chromatography); not shown: HLT (His tag, lipoyl domain, TEV protease cleavage site), N-terminal, kept
T2 sequence (looked up): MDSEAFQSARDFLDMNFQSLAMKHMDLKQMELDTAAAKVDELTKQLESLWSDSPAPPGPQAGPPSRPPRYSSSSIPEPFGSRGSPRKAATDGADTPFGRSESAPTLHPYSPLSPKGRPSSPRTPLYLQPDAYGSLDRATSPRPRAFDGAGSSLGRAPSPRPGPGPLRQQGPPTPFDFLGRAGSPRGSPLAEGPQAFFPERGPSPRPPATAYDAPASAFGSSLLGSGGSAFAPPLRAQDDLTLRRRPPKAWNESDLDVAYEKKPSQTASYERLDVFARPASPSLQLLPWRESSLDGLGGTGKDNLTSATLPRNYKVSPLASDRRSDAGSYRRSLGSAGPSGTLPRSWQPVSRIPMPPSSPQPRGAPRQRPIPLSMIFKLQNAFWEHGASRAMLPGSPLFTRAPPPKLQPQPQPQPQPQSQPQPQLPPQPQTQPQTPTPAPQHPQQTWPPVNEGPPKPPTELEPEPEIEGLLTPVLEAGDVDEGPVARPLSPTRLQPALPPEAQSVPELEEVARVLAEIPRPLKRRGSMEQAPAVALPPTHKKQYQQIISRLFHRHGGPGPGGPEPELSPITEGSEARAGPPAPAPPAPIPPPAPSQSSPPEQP
Briefly: peptide or protein array; CelluSpots array of 24 partly overlapping 15-residue iASPP Ank-SH3 peptides on cellulose; HLT-iASPP Pro in 50 mM phosphate pH 7.0, 10% glycerol, 0.001% Tween 20, ionic strength 150 mM, 2.5% skimmed milk; detected with anti His HRP antibody. The conditions noted are these: both partners purified.

Test [5] addresses T1, iASPP Ank-SH3. The settings on record: cited from earlier work. The source says:
iASPP 1-478 and specifically iASPP 1-240 but not iASPP 249-482 were previously shown to bind iASPP Ank-SH3 in a pull down assay. We further mapped this interaction using peptide arrays and identified the exact regions in iASPP Pro that bind iASPP Ank-SH3.

Test [6] has as its target T3, iASPP Ank-SH3 (human, UniProt Q8WUF5 603-828).
T3 construct: iASPP (human), four ankyrin repeats and SH3 domain, residues 603-828, Swiss-Prot Q8WUF5; also called iASPP Ank-SH3 603-828; cleaved iASPP Ank-SH3; source: E. coli HMS 174, purified (Nickel Sepharose, TEV cleavage, second Nickel column, size exclusion chromatography); not shown: HLT (His tag, lipoyl domain, TEV protease cleavage site), N-terminal, cleaved
T3 sequence (looked up): T1 sequence (Q8WUF5 603-828)
Briefly: fluorescence polarisation; fluorescence anisotropy; 250 uM iASPP Ank-SH3 titrated into 100 nM fluorescein-labeled peptide; 10 °C; 20 mM Hepes pH 7.3, 43 mM NaCl (ionic strength 50 mM), 10% glycerol, 5 mM β-mercaptoethanol; fit to a 1:1 model. The settings on record: both partners purified.

In the case of iASPP Ank-SH3 (from UniProt Q8WUF5), in test [1], the dissociation constant Kd was 45 µM.
For “iASPP 83-90: iASPP Pro derived peptide that includes the iASPP phosphorylation site S84 (GSPRKAAT; UniProt Q8WUF5 83-90, looked up, fragment)”, the “binding to iASPP Ank-SH3 (in words)” value with iASPP Ank-SH3 [2] is “did not bind”. The “binding of HLT-iASPP Ank-SH3 to the peptide in the array” value with HLT-iASPP Ank-SH3 is “did not bind”.
In the case of “YALWDYSAEFGDELS [iASPP 764-778, array peptide, iASPP Ank-SH3 residues 764-778, RT loop]”, the “binding of HLT-iASPP Pro to the peptide in the array” value in the test on HLT-iASPP Pro [3] was “bound”.
On the same count and under the same terms, the same measure for “WAALHGQEGYVPRNY [iASPP 800-814, array peptide, iASPP Ank-SH3 residues 800-814]”: “bound”.
With “SMEMRSVLRKAGSPR [iASPP 604-618, array peptide, iASPP residues 604-618]”, in the test with HLT-iASPP Ank-SH3, the “binding of HLT-iASPP Ank-SH3 to the peptide in the array” value is “bound”.
As to “EGYADCATYLADVEQ [iASPP 739-753, array peptide, iASPP Ank-SH3 residues 739-753, fourth ankyrin repeat]”, the “binding of HLT-iASPP Pro to the peptide in the array” value with HLT-iASPP Pro [3] is “bound”.

B1: iASPP Ank-SH3 array peptide 764-778 (spot E19) (peptide)
peptide: Ac-YALWDYSAEFGDELS-{cellulose membrane (amide bond)}
modifications: also: C-terminus bound to cellulose membrane via amide
notes: source: synthetic peptide on CelluSpots array (INTAVIS)
Turning to B1, the binding result in the test with HLT-iASPP Pro [4] was “binds”.

B2: iASPP 1-478: iASPP fragment 1-478 of a previous pull down assay (protein, UniProt Q8WUF5 1-478, looked up, fragment)
chain: MDSEAFQSARDFLDMNFQSLAMKHMDLKQMELDTAAAKVDELTKQLESLWSDSPAPPGPQAGPPSRPPRYSSSSIPEPFGSRGSPRKAATDGADTPFGRSESAPTLHPYSPLSPKGRPSSPRTPLYLQPDAYGSLDRATSPRPRAFDGAGSSLGRAPSPRPGPGPLRQQGPPTPFDFLGRAGSPRGSPLAEGPQAFFPERGPSPRPPATAYDAPASAFGSSLLGSGGSAFAPPLRAQDDLTLRRRPPKAWNESDLDVAYEKKPSQTASYERLDVFARPASPSLQLLPWRESSLDGLGGTGKDNLTSATLPRNYKVSPLASDRRSDAGSYRRSLGSAGPSGTLPRSWQPVSRIPMPPSSPQPRGAPRQRPIPLSMIFKLQNAFWEHGASRAMLPGSPLFTRAPPPKLQPQPQPQPQPQSQPQPQLPPQPQTQPQTPTPAPQHPQQTWPPVNEGPPKPPTELEPEPEIEGLLTPVLEAGD
In the case of B2, the “binding to iASPP Ank-SH3 in pull down assay” value (“binding … in pull down assay” for short) with iASPP Ank-SH3 [5] is given as “bind”.

B3: iASPP 249-482: iASPP fragment 249-482 of a previous pull down assay (protein, UniProt Q8WUF5 249-482, looked up, fragment)
chain: AWNESDLDVAYEKKPSQTASYERLDVFARPASPSLQLLPWRESSLDGLGGTGKDNLTSATLPRNYKVSPLASDRRSDAGSYRRSLGSAGPSGTLPRSWQPVSRIPMPPSSPQPRGAPRQRPIPLSMIFKLQNAFWEHGASRAMLPGSPLFTRAPPPKLQPQPQPQPQPQSQPQPQLPPQPQTQPQTPTPAPQHPQQTWPPVNEGPPKPPTELEPEPEIEGLLTPVLEAGDVDEG
On to B3, for which the “binding … in pull down assay” value in the test with iASPP Ank-SH3 [5] is on record as “not”.

B4: iASPP Ank-SH3 array peptide 800-814 (spot E23) (peptide)
peptide: Ac-WAALHGQEGYVPRNY-{cellulose membrane (amide bond)}
modifications: also: C-terminus bound to cellulose membrane via amide
notes: iASPP (human) residues 800-814; also called iASPP 800-814; source: synthetic peptide on CelluSpots array (INTAVIS)
Turning to B4, in the test with HLT-iASPP Pro [4], the binding result is listed as “binds”.

B5: iASPP 1-240: iASPP fragment 1-240 of a previous pull down assay (protein, UniProt Q8WUF5 1-240, looked up, fragment)
chain: MDSEAFQSARDFLDMNFQSLAMKHMDLKQMELDTAAAKVDELTKQLESLWSDSPAPPGPQAGPPSRPPRYSSSSIPEPFGSRGSPRKAATDGADTPFGRSESAPTLHPYSPLSPKGRPSSPRTPLYLQPDAYGSLDRATSPRPRAFDGAGSSLGRAPSPRPGPGPLRQQGPPTPFDFLGRAGSPRGSPLAEGPQAFFPERGPSPRPPATAYDAPASAFGSSLLGSGGSAFAPPLRAQDDL
Regarding B5, the “binding … in pull down assay” value with iASPP Ank-SH3 [5] is on record as “bind”.

B6: iASPP Ank-SH3 array peptide 739-753 (spot E16) (peptide)
peptide: Ac-EGYADCATYLADVEQ-{cellulose membrane (amide bond)}
modifications: also: C-terminus bound to cellulose membrane via amide
notes: as for B1
As to B6, the binding result in the test with HLT-iASPP Pro [4] was “binds”.

B7: fluorescein labeled iASPP 540-562 (peptide)
chain: {5(6)‑carboxyfluorescein}-KKQYQQIISRLFHRHGGPGPGGP
Take B7: in the test with iASPP Ank-SH3 [6], the Kd stood at 34 ± 2 µM.

B8: fluorescein labeled iASPP 60-74 (peptide)
chain: {5(6)‑carboxyfluorescein}-QAGPPSRPPRYSSSS
B8 came in with a Kd in the test with iASPP Ank-SH3 [6] of 35 ± 2 µM.
